Test [1] has as its target T1, purified human monomeric 4-1BB (UniProt Q07011 24-186). Kind of test: SPR; 25 °C.
The target of test [2] is T1, purified human monomeric 4-1BB. Kind of test: SPR; 25 °C, steady state affinity.

T1 sequence (Q07011 other isoform, or with tags, fused parts or gaps): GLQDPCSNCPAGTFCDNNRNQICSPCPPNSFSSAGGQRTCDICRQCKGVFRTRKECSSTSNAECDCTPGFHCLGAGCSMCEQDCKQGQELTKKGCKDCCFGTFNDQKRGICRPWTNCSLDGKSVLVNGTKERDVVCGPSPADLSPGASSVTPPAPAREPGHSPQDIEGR

B1: v20036 (antibody, V domains shown)
VH: QVQLQESGPGLVQPTQSLSITCTVSGFSLISYGVHWVRQSPGKGLEWLGVIWSGGSTDYNAAFISRLSISKDNSKSQVFFKMNSLQADDTAIYYCARNPLTATVMDYWGQGTSVTVSS
VL: DIVMTQSQKFMSTSVGDRVSVTCKASQNVGTNVAWYQQKPGQSPKALIYSASYRDSGVPDRFTGSGSGTDFTLTISNVQSEDLAEYLCQQYNSYPLTFGAGTKLELKR
In test [1], B1 gave a Kd of 0.256 µM.

B2: v28696 (antibody, V domains shown)
VH: QVQLQESGPGLVKPSETLSLTCTVSGFSLISYGVHWIRQPPGKGLEWIGVIWSGGSTDYNPSLKSRVTISVDTSKNQFSLKLSSVTAADTAVYYCARNPLTATVMDYWGQGTLVTVSS
VL: DIQMTQSPSSLSASVGDRVTITCRASQNVGTNVAWYQQKPGKAPKALIYSASYRDSGVPSRFSGSGSGTDFTLTISSLQPEDFATYYCQQYNSYPLTFGGGTKVEIKR
As to B2, the dissociation constant (Kd) in test [2] amounted to 0.687 µM.

The Kd is the concentration at which binding is half-saturated. Low values mean higher affinity, high ones lower affinity.
